Test results: patent US20250368734A1 (ANTENGENE BIOLOGICS, published 2025)

B1: ch96C9E7 (antibody, V domains shown)
VH: EVQLQQSGPELVKPGASVKMSCKASGYTFTYYILHWVKQKPGQGLEWIGYFNPYNDGNKFNERFRGKATLTSDKSSSTAYMELNSLTSEDSAVYFCARGGVRRYFDVWGAGTTVTVSS
VL: DIQMTQSPSSLSASLGERVSLTCRASQDIGSNLNWLQQEPDGTIKRLISATFSLDSGVPKRFSGSRSGSDYSLTISSLESEDFVNYYCLQYASFPYTFGGGTKLEIK
B2: ch90G6H3 (antibody, V domains shown)
VH: QAYLQQSGAELVRSGASVKMSCKASGYTFTSYIMHWVKQTPGQGLEWIGYIYPGNGGTNYNQKFKDKATLSADTSSSTAYMQINSLTSEDSAVYFCARWGLRQGFAYWGQGTLVSVSA
VL: DIVMTQSQKFMSTSVGDRVSVTCKASQNVGGNVAWYQQKPGQSPKALIYSTSYRNSGVPDRFTGSGSGTDFTLTISNVQSEDLAEYFCQQYNSYPFTFGSGTKLEIR
B3: ch89F11E3 (antibody, V domains shown)
VH: QVQLQQSGAELARPGASVKMSCKASGYTFTSSTIHWVKQRPGQGLAWIGYIVPSTGYTNYNQKFKDKATLTADKSSSTAYMQLTSLTSEDSAVYYCARSDGYPFGYSMAYWGQGTSVTVSS
VL: DIQMNQSPSSLSASLGDTITITCHASQNINVWLSWYHQKPGNIPKLLIYKASNLHTGVPSRFSGSGSGTGFTLTISRLQPEDIATYYCQQGQSYPFTFGSGTKLEIK
B4: ch87A3G8 (antibody, V domains shown)
VH: QVQLKESGPGLVAPSQSLSITCTVSGFSLSSYSVYWVRQPPGKGLEWLGVIWAGGSTNYNSALMSRLSINKDKSKSQVFLKMNSLQTDDSAIYYCAMRWLPRGLDFWGQGTSVTVSS
VL: DIVMTQSHKFMSTSVGDRVSITCKASQDVGTAVAWYQQKPGQSPKLLIYWASTRHTGVPDRFTGSGSGTDFTLTISNVQSEDLADYFCQQYSTYYTFGGGTKLEIK
B5: ch110B4H5 (antibody, V domains shown)
VH: EVQLQQSGPELVKPGASVKMSCKASGYTFTFYIMHWVKQKPGQGPEWIGYINPYNDGTKYNAKFKGKATLSSDRSSSTAYMELSSLTSEDSAVYYCARGGVRRYFDVWGAGTPVTVSS
VL: DIQMTQSPSSLSASLGERVSLTCRSSQDIGSNLNWLQQEPDGTIKRLIYATFSLDSGVPKRFSGSRSGSHYSLTISSLESEDFVVYYCLQYGSFPYTFGGGTKLEIK
B6: ch108C4C12 (antibody, V domains shown)
VH: EVQLQQSGPELVKPGASVKMSCKASGYTFTSYVIHWVKQKTGQGLEWIGYFNPYNDGTKYNEEFKGKATLTSDKSSNTAYMELNSLTSDDSAVYFCARGGVRRYFDVWGAGTTVTVSS
VL: DIQMTQSPSSLSASLGERVSLTCRASQDIGSNLNWLQQEPDGTIKRLIYATFGLDSGVPKRFSGSRSGSDYSLTISSLESEDFVDYYCQQYASFPYTFGGGTKLEIK
B7: ch101B3G3 (antibody, V domains shown)
VH: EVQLQQSGPELVKPGASMKISCKASGYSFTGYTMNWVKQSHGKNLEWIGLINPYNGGTRYNQKFKDKATLTVDKSSSTAYMELLSLTSEDSAVYYCARWLLRYAMDYWGQGTSVTVSS
VL: DIVMTQSQKFMSTSVGDRVSITCKASQNVGNAVAWYQQKPGHSPKLLISSASNRKNGVPDRFTGSGSGTDFTLTVSNMQSEDLADYFCQQYSDSSWTFGGGTKLEIK

Key:
[1] = target: T1, cynomolgus monkey GPRC5D (cynomolgus monkey); assay: FACS, HEK293T-cynoGPRC5D cells
T1 construct: whole, on cells; HEK293T-cynoGPRC5D cells; also called cynoGPRC5D

[2] = target: T2, mouse GPRC5D (mouse, UniProt Q9JIL6 1-344); assay: FACS, HEK293T-mGPRC5D cells
T2 construct: whole, on cells; HEK293T-mGPRC5D cells; also called mGPRC5D; murine GPRC5D
T2 sequence (looked up): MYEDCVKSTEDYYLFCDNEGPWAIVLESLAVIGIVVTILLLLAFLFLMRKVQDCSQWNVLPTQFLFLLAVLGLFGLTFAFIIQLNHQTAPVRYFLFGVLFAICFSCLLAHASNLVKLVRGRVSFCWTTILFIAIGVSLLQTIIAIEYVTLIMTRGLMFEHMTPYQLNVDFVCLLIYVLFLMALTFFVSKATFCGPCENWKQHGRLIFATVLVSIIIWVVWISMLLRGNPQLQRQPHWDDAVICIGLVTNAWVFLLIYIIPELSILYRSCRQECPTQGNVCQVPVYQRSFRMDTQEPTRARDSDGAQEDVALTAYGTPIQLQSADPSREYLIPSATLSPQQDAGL

[3] = target: T3, human GPRC5D (human, UniProt Q9NZD1 1-345); assay: FACS, CHOS-hGPRC5D cells
T3 construct: whole, on cells; also called hGPRC5D; G-protein coupled receptor family C group 5 member D
T3 sequence (Q9NZD1 whole entry): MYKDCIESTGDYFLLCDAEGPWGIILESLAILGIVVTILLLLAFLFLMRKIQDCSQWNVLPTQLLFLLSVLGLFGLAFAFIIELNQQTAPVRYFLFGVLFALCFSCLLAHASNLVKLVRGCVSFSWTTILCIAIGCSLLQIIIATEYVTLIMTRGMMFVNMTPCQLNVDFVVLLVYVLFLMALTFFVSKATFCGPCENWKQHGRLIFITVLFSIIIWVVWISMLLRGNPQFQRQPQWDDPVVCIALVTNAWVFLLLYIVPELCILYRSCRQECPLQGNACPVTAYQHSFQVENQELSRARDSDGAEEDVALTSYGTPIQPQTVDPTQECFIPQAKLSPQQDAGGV

Binder | EC50 [1] | Top [1] | EC50 [2] | Top [2] | EC50 [3] | Top [3]
B1 | 8.25 nM | 34300 | 18.5 nM | 19200 | 1.97 nM | 2830
B2 | 13.6 nM | 61600 | 12.3 nM | 55300 | 8.51 nM | 2250
B3 | 278 nM | 40500 | 14.2 nM | 77300 | 2.41 nM | 2600
B4 | 9.74 nM | 42200 | 15 nM | 76200 | 2.81 nM | 1950
B5 | 4.87 nM | 27600 | 14.2 nM | 42900 | 2.74 nM | 1820
B6 | 3.87 nM | 39700 | 109 nM | 25500 | 0.463 nM | 2040
B7 | 9.2 nM | 68900 | 38.6 nM | 57600 | 4.85 nM | 3940
